# According to patent publication US20260042827A1, “ANTI-WT1 ANTIGEN-BINDING PROTEINS AND USES THEREOF” (UNIVERSITY HEALTH NETWORK, priority 2022, published 2026):
# T1: HLA-DP4 (human), P20036
# T1 chain 1: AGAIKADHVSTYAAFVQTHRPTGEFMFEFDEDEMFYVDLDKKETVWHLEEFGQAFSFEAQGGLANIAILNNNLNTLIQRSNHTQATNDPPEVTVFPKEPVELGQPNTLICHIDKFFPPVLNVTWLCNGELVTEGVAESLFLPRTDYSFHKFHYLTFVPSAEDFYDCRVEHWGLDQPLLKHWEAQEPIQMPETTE
# T1 chain 2: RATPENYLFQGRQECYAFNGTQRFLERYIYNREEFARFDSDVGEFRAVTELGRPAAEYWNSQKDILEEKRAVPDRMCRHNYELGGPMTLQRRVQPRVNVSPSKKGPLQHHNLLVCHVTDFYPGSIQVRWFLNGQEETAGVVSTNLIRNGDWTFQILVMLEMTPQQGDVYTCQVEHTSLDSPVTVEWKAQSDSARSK
# Molecular target: T1, HLA-DP4 (human), P20036
# Experiment: competition
# Details: modification not given
row,Binder,IC50 [mM]
1,PGCNKRYFKLSHLQMHSAKHT [345A],9.37
2,PGCNKRYFKLSHLAMHSRKHT [341A],8.51
3,PGCAKRYFKLSHLQMHSRKHT [331A],7.46

# Now those with a lower IC50, led by results:
row,IC50 [mM],Binder
1,5.44,PACNKRYFKLSHLQMHSRKHT [329A]
2,4.74,PGCNARYFKLSHLQMHSRKHT [332A]
3,0.3,PGCNKAYFKLSHLQMHSRKHT [333A]
